The values below are quoted from earlier work in publication PMC4340704.

As usually defined, the pKa is the negative logarithm of the acid dissociation constant.

The target of the data set is Cys106 (UniProt position 106, LIAAICAGPTA). Particulars: reduced Cys106 thiol/thiolate implied; otherwise not stated.

Take “DJ-1 (Parkinson disease protein 7) (Homo sapiens)”: the pKa was 5.4.
